Publication PMC8648671

Legend:
[1] = molecular target: Flag-βPix
[2] = molecular target: βPix-SH3 mutant-Myc (W43K)

B1: Dyn2-GFP (natural protein)
chain: MGNRGMEELIPLVNKLQDAFSSIGQSCHLDLPQIAVVGGQSAGKSSVLENFVGRDFLPRGSGIVTRRPLILQLIFSKTEYAEFLHCKSKKFTDFDEVRQEIEAETDRVTGTNKGISPVPINLRVYSPHVLNLTLIDLPGITKVPVGDQPPDIEYQIKDMILQFISRESSLILAVTPANMDLANSDALKLAKEVDPQGLRTIGVITKLDLMDEGTDARDVLENKLLPLRRGYIGVVNRSQKDIEGRKDIRAALAAERKFFLSHPAYRHMADRMGTPHLQKTLNQQLTNHIRESLPTLRSKLQSQLLSLEKEVEEYKNFRPDDPTRKTKALLQMVQQFGVDFEKRIEGSGDQVDTLELSGGARINRIFHERFPFELVKMEFDEKDLRREISYAIKNIHGVRTGLFTPDLAFEAIVKKQVVKLKEPCLKCVDLVIQELISTVRQCTSKLSSYPRLREETERIVTTYIREREGRTKDQILLLIDIEQSYINTNHEDFIGFANAQQRSTQLNKKRAIPNQGEILVIRRGWLTINNISLMKGGSKEYWFVLTAESLSWYKDEEEKEKKYMLPLDNLKIRDVEKGFMSNKHVFAIFNTEQRNVYKDLRQIELACDSQEDVDSWKASFLRAGVYPEKDQAENEDGAQENTFSMDPQLERQVETIRNLVDSYVAIINKSIRDLMPKTIMHLMINNTKAFIHHELLAYLYSSADQSSLMEESAEQAQRRDDMLRMYHALKEALNIIGDISTSTVSTPVPPPVDDTWLQNTSSHSPTPQRRPVSSVHPPGRPPAVRGPTPGPPLIPMPVGATSSFSAPPIPSRPGPQNVFANNDPFSAPPQIPSRPARIPPGIPPGVPSRRAPAAPSRPTIIRPAEPSLLD
[1]
  Rac1 activity (Rac1-GTP by GST-PBD pull-down, against total Rac1) in HEK293T cells transfected with Flag-βPix and Dyn2-GFP, relative to non-transfected cells: 3 fold
[2]
  Rac1 activity (Rac1-GTP by GST-PBD pull-down) in HEK293T cells transfected with the Flag-tagged SH3 mutant of βPix and Dyn2-GFP: 50%
